Literature values as cited in US7266483B2, “System and methods for optimized drug delivery and progression of diseased and normal cells” (Optimata Ltd., priority 2000, dated 2007).

B1: G-CSF: Granulocyte-Colony Stimulating Factor; generates an increase in blood Neutrophil levels (protein, UniProt P09919 31-207, looked up)
Granulocyte …: TPLGPASSLPQSFLLKCLEQVRKIQGDGAALQEKLVSECATYKLCHPEELVLLGHSLGIPWAPLSSCPSQALQLAGCLSQLHSGLFLYQGLLQALEGISPELGPTLDTLQLDVADFATTIWQQMEELGMAPALQPTQGAMPAFASAFQRRAGGVLVASHLQSFLEVSYRVLRHLAQP

Tests used:
[1] = modeled as exponential distribution, held constant
post mitotic compartment = conditions: counts made on day 5 after G-CSF administration; noted by Price
[2] = average model parameter calculated from published data

Row | Molecule | a, TPO-clearing ability of the receptors [2] | f, coefficient of non-specific TPO clearance [2] | relation coefficient of initial maximum TPO blood concentration (xi) to administered intravenous (IV) dose (s) (linear relation, xi=0.0167·si) | half-life of G-CSF in the blood [1] | number of cells in the post mitotic compartment following administration of G-CSF (post mitotic compartment)
1 | TPO: Thrombopoiesis-controlling cytokine, glycoprotein of about 350 amino acids; term covers its recombinant forms and analogs | 38 pg/ml/hr/receptor molecule | 0.1 h⁻¹ | 0.0167 |  | 
2 | B1 |  |  |  | 3.5 h | not significantly changed
